The values that follow come from patent publication US20170315124A1 (ATTOGEN BIOMEDICAL SUZHOU, published 2017).

The target of assay [1] is T1, GST-HPV16 L2 fusion protein (HPV16, UniProt P03107 1-473).
T1 construct: Specificity control antigen in the ELISA; also called recombinant protein HPV16 L2; not shown: glutathione S-transferase (GST) fusion partner
T1 sequence: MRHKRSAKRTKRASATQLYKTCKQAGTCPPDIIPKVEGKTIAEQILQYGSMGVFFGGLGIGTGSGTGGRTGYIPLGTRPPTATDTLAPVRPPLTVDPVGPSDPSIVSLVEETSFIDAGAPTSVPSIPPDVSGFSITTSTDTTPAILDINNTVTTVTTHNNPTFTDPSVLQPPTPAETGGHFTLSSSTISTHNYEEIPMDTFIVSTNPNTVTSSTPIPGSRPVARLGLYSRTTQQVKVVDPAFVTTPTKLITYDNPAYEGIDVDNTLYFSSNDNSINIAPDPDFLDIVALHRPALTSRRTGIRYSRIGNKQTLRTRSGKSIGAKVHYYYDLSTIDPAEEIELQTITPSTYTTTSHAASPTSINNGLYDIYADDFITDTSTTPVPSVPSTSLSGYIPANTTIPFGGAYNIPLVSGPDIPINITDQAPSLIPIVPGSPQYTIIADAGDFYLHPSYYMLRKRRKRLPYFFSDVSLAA
In words: indirect ELISA on coated antigen. On the technique in general: ELISA stands for enzyme-linked immunosorbent assay.

For another assay, the target named is T2, polypeptide HPV16 E7-1 (HPV16).
T2 peptide: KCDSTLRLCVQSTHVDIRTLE
In words: indirect ELISA on coated peptide.

For assay [2], the target named is T3, His-HPV16 E7 recombinant fusion protein (HPV16, UniProt P03129 2-98).
T3 construct: also called recombinant protein HPV16 E7; not shown: His tag
T3 sequence: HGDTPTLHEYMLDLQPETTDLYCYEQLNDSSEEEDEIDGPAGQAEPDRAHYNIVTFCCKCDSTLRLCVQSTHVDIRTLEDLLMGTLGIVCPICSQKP
Briefly: indirect ELISA, method of Beatty et al.; His-HPV16 E7 coated at 4 concentrations, 7B6 in 8 two-fold dilutions from 2 µg/ml; mean of 6 K values.

For assay [3], the target named is T3, His-HPV16 E7 recombinant fusion protein. Briefly: indirect ELISA, method of Beatty et al.; reference 2G7.
Protocol: There were total 8 gradients and then ELISA test was conducted. The obtained values were plot into Kaff=(n−1)/2(n [Ab′]−[Ab]) to obtain the affinity constant. […] It means using the antibody concentration corresponding to half of the highest OD value (50% OD) on the curve through graphing method. In this equation, n=Ag/Ag′. Then each two of them were compared, when n=4, three K values could be obtained, when n=16, two K values could be obtained and when n=64, one K values could be obtained then calculate the average of these six values as the result.
For assay [4] the target is unchanged. Briefly: indirect ELISA, method of Beatty et al.; reference 1H11.

B1: anti-HPV16 E7 monoclonal antibody 7B6 (antibody, V domains shown)
VH: VKLQESGPELVKPGASMKISCKASGYSFTGSTMNWVKQSHGKNLEWIGLIDPYNGVIRYNQKFKGRATLTIDKSSSTAYMELLSLTSDDSAVYYCARKLRYWGQGTTLTVSS
VL: ATQSPSSLNVSPGEKVTMSCKSSQSLLNSGNQRNYLAWYQQKPGQPPKLLIYGASTRESGVPDRFTGSGSGTDFTLTISSVQAEDLAVYYCQNDLSYPLTFGAGTKLELK
notes: also called mAb anti-HPV16E7 7B6
What is called Kd is the free concentration of one partner at which half of the binding sites on the other are occupied at equilibrium, for simple one-to-one binding. As to B1, the binding result was “no binding (tested: 7B6 1 µg/ml; antigen coated at 2 µg/ml)” in assay [1] and “no binding” with polypeptide HPV16 E7-1. Also, the Kd in assay [2] was determined as 640 pM. Further, the “fold of binding affinity over 2G7” value in assay [3] came to 2 fold. Further, the “fold of binding affinity over 1H11” value in assay [4] came out at 5 fold.
